From paper PMC4092090, “Investigation of a MMP-2 Activity-Dependent Anchoring Probe for Nuclear Imaging of Cancer” (PLoS ONE, 2014)
Read-outs that look alike come from different tables or passages of the source.

What was measured:
[1] = system: HT1080 tumor bearing mice; set-up: species or system mouse (Balb/c nu-nu); settings: mouse, in vivo, iv; for Radioactivity biodistribution, Blood / Radioactivity biodistribution, Heart / Radioactivity biodistribution, Intestine / Radioactivity biodistribution, Kidneys / Radioactivity biodistribution, Liver / Radioactivity biodistribution, Lung / Radioactivity biodistribution, Muscle / Radioactivity biodistribution, Pancreas / Radioactivity biodistribution, Spleen / Radioactivity biodistribution, Stomach / Radioactivity biodistribution, Tumor / T/B (tumor to blood ratio): 37 kBq
Experimental: Female Balb/c nu-nu mice (5 weeks old, Japan SLC, Inc., Shizuoka, Japan) were housed under a 12-h light/12-h dark cycle and given free access to food and water. HT1080 cells (5×10^6 cells/100 μl PBS (-)/mouse) were subcutaneously inoculated into the right hind leg of Balb/c nu-nu mice. Animals were used for experiments two weeks after inoculation when the mean tumor size was 5.7±2.2 mm along the major axis. […]3000 and […] (37 kBq, 100 μl in PBS including 3% bovine serum albumin and 0.1% Tween 80) were injected intravenously into the tail vein of tumor bearing mice. The mice were sacrificed at various post-injection time points (n = 3 for each time point), and the organs of interest including the tumor tissues were collected for determination of the weights. The radioactivity of each sample was measured with a NaI well-type scintillation counter. From fitting to the two phase decay curves for blood radioactivity data analyzed by GraphPad Prism 6 (GraphPad Software, San Diego, CA), whole body pharmacokinetic parameters such as blood half-lives, distribution volume, mean residence time and total clearance were calculated for each of the probes and the values compared. Simple pharmacokinetic analysis using a single tissue compartment model was applied to the biodistribution data to calculate rate constants (K1 and k2) for radioactivity transfer from blood to tumor and clearance from tumor to blood by PMOD version 3.2. In addition, MDAP3000 (7.4 MBq in 200 μl) was injected intravenously into the tail vein of tumor bearing mice for metabolite analysis in tumors excised 3, 6, and 24 hr post injection (n = 2 each). Tumor homogenates were prepared on ice and insoluble material was removed by centrifugation after methanol treatment. The resulting supernatant was analyzed by RP-HPLC.

[2] = assay type: physicochemical; settings: pH 7.4
Experimental: The experimental determination of probe partition coefficients (log P values) was performed in 1-octanol and 0.02 M phosphate buffer pH 7.4 where the two phases were pre-saturated with each other. 1-Octanol (200 µl) and phosphate buffer (200 µl) were pipetted into LoBind Eppendorf tubes containing 0.37 MBq of probes. The tube was vortexed for 10 seconds, and centrifuged (5 min, 4000×g). Aliquots (50 µl) from the 1-octanol and buffer phases were transferred into two test tubes for radioactivity counting with a NaI well-type scintillation counter (1470 WIZARD, Perkin Elmer, Kanagawa, Japan). The partition coefficient was calculated using the equation P = (counts/µl in 1-octanol)/(counts/µl in buffer).

[3] = system: HT1080 tumor bearing mice; set-up: species or system mouse (Balb/c nu-nu); settings: mouse, in vivo, iv
Experimental: (§1) […]3000 and […] (37 kBq, 100 μl in PBS including 3% bovine serum albumin and 0.1% Tween 80) were injected intravenously into the tail vein of tumor bearing mice. The mice were sacrificed at various post-injection time points (n = 3 for each time point), and the organs of interest including the tumor tissues were collected for determination of the weights. The radioactivity of each sample was measured with a NaI well-type scintillation counter. From fitting to the two phase decay curves for blood radioactivity data analyzed by GraphPad Prism 6 (GraphPad Software, San Diego, CA), whole body pharmacokinetic parameters such as blood half-lives, distribution volume, mean residence time and total clearance were calculated for each of the probes and the values compared. Simple pharmacokinetic analysis using a single tissue compartment model was applied to the biodistribution data to calculate rate constants (K1 and k2) for radioactivity transfer from blood to tumor and clearance from tumor to blood by PMOD version 3.2. In addition, MDAP3000 (7.4 MBq in 200 μl) was injected intravenously into the tail vein of tumor bearing mice for metabolite analysis in tumors excised 3, 6, and 24 hr post injection (n = 2 each). Tumor homogenates were prepared on ice and insoluble material was removed by centrifugation after methanol treatment. The resulting supernatant was analyzed by RP-HPLC.

[4] = system: HT1080 tumor xenograft; set-up: species or system mouse (Balb/c nu-nu); settings: mouse, in vivo
Experimental: as §1

Substance: Palmitoyl-Dap(p-SCN-Bn-DTPA-^111In)-10-Adc-Gly-Pro-Leu-Gly-Val-Arg-Gly-Lys(ivDde)-PEG3000 [MDAP3000]
- Blood clearance (in words) [1]: rapid blood clearance
- Tumor accumulation (in words) [1]: high tumor accumulation
- Radioactivity biodistribution, Blood ([1]; 0.25 h): 44.98±2.53 % injected dose per gram
- Radioactivity biodistribution, Heart ([1]; 0.25 h): 9.26±0.86 % injected dose per gram
- Radioactivity biodistribution, Intestine ([1]; 0.25 h): 3.59±0.24 % injected dose per gram
- Radioactivity biodistribution, Kidneys ([1]; 0.25 h): 11.85±0.84 % injected dose per gram
- Radioactivity biodistribution, Liver ([1]; 0.25 h): 18.83±1.38 % injected dose per gram
- Radioactivity biodistribution, Lung ([1]; 0.25 h): 20.44±4.77 % injected dose per gram
- Radioactivity biodistribution, Muscle ([1]; 0.25 h): 1.72±0.76 % injected dose per gram
- Radioactivity biodistribution, Pancreas ([1]; 0.25 h): 3.91±0.33 % injected dose per gram
- Radioactivity biodistribution, Spleen ([1]; 0.25 h): 6.53±0.34 % injected dose per gram
- Radioactivity biodistribution, Stomach ([1]; 0.25 h): 0.48±0.04 % injected dose per organ
- Radioactivity biodistribution, Tumor ([1]; 0.25 h): 3.60±0.17 % injected dose per gram
- T/B (tumor to blood ratio) ([1]; 0.25 h): 0.08±0.01
- Radioactivity biodistribution, Blood ([1]; 1 h): 30.48±1.67 % injected dose per gram
- Radioactivity biodistribution, Heart ([1]; 1 h): 8.20±0.74 % injected dose per gram
- Radioactivity biodistribution, Intestine ([1]; 1 h): 5.85±0.11 % injected dose per gram
- Radioactivity biodistribution, Kidneys ([1]; 1 h): 10.60±0.38 % injected dose per gram
- Radioactivity biodistribution, Liver ([1]; 1 h): 18.45±0.81 % injected dose per gram
- Radioactivity biodistribution, Lung ([1]; 1 h): 15.92±0.58 % injected dose per gram
- Radioactivity biodistribution, Muscle ([1]; 1 h): 1.27±0.20 % injected dose per gram
- Radioactivity biodistribution, Pancreas ([1]; 1 h): 4.35±0.74 % injected dose per gram
- Radioactivity biodistribution, Spleen ([1]; 1 h): 5.65±0.98 % injected dose per gram
- Radioactivity biodistribution, Stomach ([1]; 1 h): 0.69±0.21 % injected dose per organ
- Radioactivity biodistribution, Tumor ([1]; 1 h): 5.49±0.53 % injected dose per gram
- T/B (tumor to blood ratio) ([1]; 1 h): 0.18±0.03
- Radioactivity biodistribution, Blood ([1]; 3 h): 15.33±0.81 % injected dose per gram
- Radioactivity biodistribution, Heart ([1]; 3 h): 6.70±0.59 % injected dose per gram
- Radioactivity biodistribution, Intestine ([1]; 3 h): 13.13±1.73 % injected dose per gram
- Radioactivity biodistribution, Kidneys ([1]; 3 h): 11.89±0.76 % injected dose per gram
- Radioactivity biodistribution, Liver ([1]; 3 h): 22.83±3.72 % injected dose per gram
- Radioactivity biodistribution, Lung ([1]; 3 h): 9.72±1.02 % injected dose per gram
- Radioactivity biodistribution, Muscle ([1]; 3 h): 1.49±0.15 % injected dose per gram
- Radioactivity biodistribution, Pancreas ([1]; 3 h): 5.25±0.57 % injected dose per gram
- Radioactivity biodistribution, Spleen ([1]; 3 h): 5.41±0.64 % injected dose per gram
- Radioactivity biodistribution, Stomach ([1]; 3 h): 1.17±0.82 % injected dose per organ
- Radioactivity biodistribution, Tumor ([1]; 3 h): 5.49±0.36 % injected dose per gram
- T/B (tumor to blood ratio) ([1]; 3 h): 0.36±0.04
- Radioactivity biodistribution, Blood ([1]; 6 h): 8.33±0.58 % injected dose per gram
- Radioactivity biodistribution, Heart ([1]; 6 h): 5.64±0.79 % injected dose per gram
- Radioactivity biodistribution, Intestine ([1]; 6 h): 14.08±2.39 % injected dose per gram
- Radioactivity biodistribution, Kidneys ([1]; 6 h): 11.40±1.18 % injected dose per gram
- Radioactivity biodistribution, Liver ([1]; 6 h): 17.61±2.53 % injected dose per gram
- Radioactivity biodistribution, Lung ([1]; 6 h): 5.56±0.75 % injected dose per gram
- Radioactivity biodistribution, Muscle ([1]; 6 h): 1.43±0.28 % injected dose per gram
- Radioactivity biodistribution, Pancreas ([1]; 6 h): 4.97±1.31 % injected dose per gram
- Radioactivity biodistribution, Spleen ([1]; 6 h): 4.94±1.51 % injected dose per gram
- Radioactivity biodistribution, Stomach ([1]; 6 h): 0.97±0.46 % injected dose per organ
- Radioactivity biodistribution, Tumor ([1]; 6 h): 7.31±1.12 % injected dose per gram
- T/B (tumor to blood ratio) ([1]; 6 h): 0.88±0.14
- Radioactivity biodistribution, Blood ([1]; 24 h): 1.61±0.27 % injected dose per gram
- Radioactivity biodistribution, Heart ([1]; 24 h): 3.78±0.39 % injected dose per gram
- Radioactivity biodistribution, Intestine ([1]; 24 h): 3.70±1.06 % injected dose per gram
- Radioactivity biodistribution, Kidneys ([1]; 24 h): 10.81±2.35 % injected dose per gram
- Radioactivity biodistribution, Liver ([1]; 24 h): 10.51±0.89 % injected dose per gram
- Radioactivity biodistribution, Lung ([1]; 24 h): 2.50±0.44 % injected dose per gram
- Radioactivity biodistribution, Muscle ([1]; 24 h): 1.02±0.16 % injected dose per gram
- Radioactivity biodistribution, Pancreas ([1]; 24 h): 3.92±0.68 % injected dose per gram
- Radioactivity biodistribution, Spleen ([1]; 24 h): 3.92±0.24 % injected dose per gram
- Radioactivity biodistribution, Stomach ([1]; 24 h): 0.54±0.07 % injected dose per organ
- Radioactivity biodistribution, Tumor ([1]; 24 h): 4.25±0.79 % injected dose per gram
- T/B (tumor to blood ratio) ([1]; 24 h): 2.74±0.89
- log P (partition coefficient) [2]: −0.95±0.12
- Blood half-life, Fast [3]: 5.6×10 min
- Blood half-life, Slow [3]: 7.17 h
- Clearance (total clearance) [3]: 0.0079 mL/min
- Distribution volume [3]: 1.94 mL
- Mean residence time [3]: 250 min
- Slower washout rate from the tumor (k2) compared to MDAPCV [4]: approximately seven-fold
- K1, rate constant for transfer from blood to tumor, Mean ([4]; iv): 0.0013 mL/g/min
